# Experimental data reported in patent US8470523B2, “Method for detecting intracellular interaction between biomolecules” (CIS BIO International, priority 2005, dated 2013).
# System: CHO-M1 cells
# Test: Entry of a fluorophore into cells in culture, fluorescence reader
# Conditions: 2.5 μM or 5 μM in KREBS buffer, 1 hour, FIG. 13
# Description: CHO cells are cultivated at 37° C., under a controlled atmosphere containing 5% of CO2, in F-12 HAM medium (Invitrogen)+10% of fetal calf serum (FCS) previously inactivated for 20 min at 60° C.
# On the day before the experiment, CHO-M1 cells are inoculated into a 96-well plate at a density of 10,000 cells per well.
# On the day of the experiment, the culture medium is aspirated and replaced with the test compounds at a concentration of 2.5 μM or 5 μM in KREBS buffer (Sigma). After 1 hour of incubation, the wells are washed with a KREBS buffer+0.05% Tween 20. The cells are then lyzed in a PBS buffer+0.1% Triton X100. The fluorescence is measured on an Analyst AD reader (LJL, Molecular Devices) with the filters and the dichroic appropriate for the spectral specificities of the compound to be detected.
structure (smiles),measurement,value
N=C(N)NCCCC(NC(=O)CCCCCN)C(=O)NCCCCCC(=O)NC(CCCNC(=N)N)C(=O)NCCCCCC(=O)NC(CCCNC(=N)N)C(=O)NCCCCCC(=O)NC(CCCNC(=N)N)C(=O)NCCCCCC(=O)NC(CCCNC(=N)N)C(=O)NCCCCCC(=O)NC(CCCNC(=N)N)C(=O)NCCCCCC(=O)NC(CCCNC(=N)N)C(=O)NC(CSCC(=O)Nc1ccc2c(c1)C1(OC2=O)c2ccc(O)cc2Oc2cc(O)ccc21)C(N)=O (stereo not shown) [R7fluorescein],entry into the cell (fluorescence intensity of lysed cells),enter the cell
